Assay results as given in patent US20200299384A1.

Target: mouse CD3epsilon protein (mouse) (UniProt P22646)
Assay: ELISA, antigen coated on plate

Sequence of mouse CD3epsilon protein (mouse) (P22646 22-108 limits assumed): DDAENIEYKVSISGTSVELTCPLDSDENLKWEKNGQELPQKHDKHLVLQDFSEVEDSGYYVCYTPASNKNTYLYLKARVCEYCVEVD

Binder	ELISA A450 [A450]
WBP3311_2.306.4 (antibody, IgG2b, V domains shown) VH: QVQLQQSGPELVKPGASVRISCKASGFAFTDYYIHWVKQRPGQGLEWIGWISPGNVNTKYNENFKGRATLTADLSSSTAYMQLSSLTSEDSAVYFCARDGYSLYYFDYWGQGTTLTVSS VL: DIVMSQSPSSLTVSAGEKVTMSCKSSQSLLNSRTRKNYLAWYQQKPGQSPKLLIYWASTRQSGVPDRFTGSGSGTAFTLTISGVQAEDLAVYFCTQSHTLRTFGGGTKLEIK	0.711
WBP3311_2.383.47 (antibody, V domains shown) VH: QVQLQQSGPELVKPGASVRISCKTSGFTFTNYYIHWVIQRPGQGLEWIGWISPENGNTKYNENFQDKATLTADISSSTAYMHLSSLTSEDSAVYFCARDGYSLYYFDYWGQGTTLTVSS VL: DIVMSQSPSSLTVSAGEKVTMSCKSSQSLLNSRTRKNYLAWYQQKPGQSPKLLIYWASIRVSGVPDRFTGSGSGTTFTLTISGVQAEDLAVYYCTQSHTLRTFGGGTKLEIK	0.666
WBP3311_2.400.5 (antibody, V domains shown) VH: QVQLQQSGPELVNPGASVKISCKASGYSFTNYYLHWVKQRPGQGLEWIGWIFPESDNTKYNEKLKGKATLTADTSSDTAYMHLSSLTFEDSAVYFCARDSVGNYFFDFWGQGTTLTVSS VL: DIVMSQSPSSLAVSAGEKVTMRCKSSQSLVNNRTRKNYLAWYQQKPGQPPKLLIYWASTRESGVPDRFTGSGSGTDFTLTISSVQAEDLAVYYCAQSFILRTFGGGTKLEIK	0.709
WBP3311_2.482.5 (antibody, V domains shown) VH: QVQLQQSGPELVKPGSSVKISCKPSGYTFTTYYIHWVKQRPGQGLEWIGWIFPGSDNIKYNENFKDKATLTADTSSSTAYMQLSSLTSEDSAVYFCARDSVSRYYFDYWGQGTILTVSS VL: DIVMSQSPSSLAVSAGEKVTMSCKSSQSLVNDRTRKNYLAWYQQKPGLSPKLLIYWASTRESGVPDRFTGSGSGTDFTLTISSVQAEDLAVYYCAQSFILRTFGGGTKLEIK	0.61
WBP331_2.488.33 (antibody, V domains shown) VH: QVQLQQSGPELVKPGTSVKISCKASGFSFTNYYIHWVKQRPGQGPEWIGWIFPGTVNTKYNEKFKGKATLTADTSSNTAFMQLSSLTSADSAVYFCARDSVGIYYFDFWGLGTTLTVSS VL: DIVMSQSPSSLAVSAGEKVTVSCKSSQSLLNNRTRKNYLAWYQQKPGQSPKLLIYWASTRESGVPDRFTGSGSGTDFTLTISSVQAEDLAVYYCTQSFILRTFGGGTKLEIK	0.607
WBP3311_2.844.8 (antibody, V domains shown) VH: QVQLQQSGPELVKPGASVRISCKASGFAFTDYYIHWVKQRPGQGLEWIGWISPGNVNTKYNENFKGRATLTADLSSSTAYMQLSSLTSEDSAVYFCARDGYSLYYFDYWGQGTTLTVSS VL: DIVMSQSPSSLTVSAGEKVTMSCKSSQSLLNSRTRKNYLAWYQQKPGQSPKLLIYWASTRESGVPDRFTGSGSGTAFTLTISGVQAEDLAVYFCTQSHTLRTFGGGTKLEIK	0.6
